The values that follow come from US20080181901A1.

The test addresses endogenous Na,K-ATPase of tsA201 cells. The test is described as follows: cell-based or functional assay.

For “full-length MONaKA transfected into tsA201 cells (86Rb+ uptake assay)”, the decrease in endogenous ouabain-sensitive 86Rb+ uptake into intact tsA201 cells is 19%.
